The assay concerns the target GST-Bag-1L-(202-345) (human, UniProt P08515 1-218 = GST; Q99933 202-345). Put plainly: GST pull-down from lysates of Bag-1L-transfected cells, immunoblot with Bag-1L specific antibody. For orientation: In western blotting, separated proteins are transferred to a membrane and probed.

B1: Bag-1L (in lysates from Bag-1L-transfected cells) (other)
chain: MAQRGGARRPRGDRERLGSRLRALRPGREPRQSEPPAQRGPPPSGRPPARSTASGHDRPTRGAAAGARRPRMKKKTRRRSTRSEELTRSEELTLSEEATWSEEATQSEEATQGEEMNRSQEVTRDEESTRSEEVTREEMAAAGLTVTVTHSNEKHDLHVTSQQGSSEPVVQDLAQVVEEVIGVPQSFQKLIFKGKSLKEMETPLSALGIQDGCRVMLIGKKNSPQEEVELKKLKHLEKSVEKIADQLEELNKELTGIQQGFLPKDLQAEALCKLDRRVKATIEQFMKILEEIDTLILPENFKDSRLKRKGLVKKVQAFLAECDTVEQNICQETERLQSTNFALAE
notes: Untagged Bag-1L as the soluble partner in the test for dimerization; also called human Bag-1L; p50
With B1, the binding result is given as “no binding”.

The record behind these values is patent US20110190218A1 (KARLSRUHE INSTITUTE OF TECHNOLOGY, published 2011).
